Values belong to the binder of their own block, whether it stands above or below them.
Assays:
Test in all cases: two-hybrid library CCNG1;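 further: natural log of median RNA to DNA barcode read ratio; higher means stronger binding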
4H2692-bA = target: T1, 4H2692-bA
T1 chain: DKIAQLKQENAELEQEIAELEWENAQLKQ

4H2717-bA = target: T2, 4H2717-bA
T2 chain: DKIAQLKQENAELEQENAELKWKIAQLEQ

4H2839-bA = target: T3, 4H2839-bA
T3 chain: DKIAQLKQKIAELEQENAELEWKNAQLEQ

4H2859-bH = target: T4, 4H2859-bH
T4 chain: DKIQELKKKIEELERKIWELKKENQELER

4H2915-bA = target: T5, 4H2915-bA
T5 chain: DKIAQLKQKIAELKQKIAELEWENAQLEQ

4H3057-bA = target: T6, 4H3057-bA
T6 chain: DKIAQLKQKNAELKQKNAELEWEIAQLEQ

4H319-bA = target: T7, 4H319-bA
T7 chain: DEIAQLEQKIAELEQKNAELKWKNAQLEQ

4H319-bN = target: T8, 4H319-bN
T8 chain: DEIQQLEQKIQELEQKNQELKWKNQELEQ

4H3277-bA = target: T9, 4H3277-bA
T9 chain: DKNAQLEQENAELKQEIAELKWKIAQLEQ

4H3298-bA = target: T10, 4H3298-bA
T10 chain: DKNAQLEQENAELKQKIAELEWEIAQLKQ

4H348-bA = target: T11, 4H348-bA
T11 chain: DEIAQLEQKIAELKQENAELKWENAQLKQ

4H40-bA = target: T12, 4H40-bA
T12 chain: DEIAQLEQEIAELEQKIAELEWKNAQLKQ

4H477-bA = target: T13, 4H477-bA
T13 chain: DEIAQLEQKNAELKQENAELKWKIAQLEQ

4H492-bA = target: T14, 4H492-bA
T14 chain: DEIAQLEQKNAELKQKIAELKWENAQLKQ

4H741-bA = target: T15, 4H741-bA
T15 chain: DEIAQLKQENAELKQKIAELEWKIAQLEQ

O6-bP = target: T16, O6-bP
T16 chain: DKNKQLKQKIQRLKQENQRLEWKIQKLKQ

4H575-bA = target: T17, 4H575-bA
T17 chain: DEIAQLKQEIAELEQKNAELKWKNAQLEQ

4H683-bA = target: T18, 4H683-bA
T18 chain: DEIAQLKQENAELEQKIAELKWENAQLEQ

4H754-bA = target: T19, 4H754-bA
T19 chain: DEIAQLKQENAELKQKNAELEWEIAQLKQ

4H780-bA = target: T20, 4H780-bA
T20 chain: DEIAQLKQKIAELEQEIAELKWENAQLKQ

4H797-bA = target: T21, 4H797-bA
T21 chain: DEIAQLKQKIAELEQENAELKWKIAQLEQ

4H855-bA = target: T22, 4H855-bA
T22 chain: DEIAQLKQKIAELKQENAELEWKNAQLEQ

4H918-bA = target: T23, 4H918-bA
T23 chain: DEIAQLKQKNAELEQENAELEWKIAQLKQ

4H953-bA = target: T24, 4H953-bA
T24 chain: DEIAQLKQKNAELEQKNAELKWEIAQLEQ

4H968-bA = target: T25, 4H968-bA
T25 chain: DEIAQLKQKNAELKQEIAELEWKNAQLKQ

P7A-bA = target: T26, P7A-bA
T26 chain: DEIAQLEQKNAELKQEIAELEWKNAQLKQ

P7SHb = target: T27, P7SHb
T27 chain: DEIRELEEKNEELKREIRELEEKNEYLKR

P8SHb = target: T28, P8SHb
T28 chain: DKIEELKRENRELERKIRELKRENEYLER

P9SHb = target: T29, P9SHb
T29 chain: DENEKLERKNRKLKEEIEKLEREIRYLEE

4H56-bA = target: T30, 4H56-bA
T30 chain: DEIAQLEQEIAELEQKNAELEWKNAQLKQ

4H730-bA = target: T31, 4H730-bA
T31 chain: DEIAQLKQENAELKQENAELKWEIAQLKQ

4H796-bA = target: T32, 4H796-bA
T32 chain: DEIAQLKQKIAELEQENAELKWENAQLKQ

4H932-bA = target: T33, 4H932-bA
T33 chain: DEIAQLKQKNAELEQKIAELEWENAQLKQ

4H949-bA = target: T34, 4H949-bA
T34 chain: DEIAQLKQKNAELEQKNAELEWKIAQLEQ

B2: 4H575-bA (peptide)
chain: DEIAQLKQEIAELEQKNAELKWKNAQLEQ
interaction score (4H575-bA): -0.354
interaction score (4H683-bA): -0.37
interaction score (4H754-bA): -0.786
interaction score (4H780-bA): -1.33
interaction score (4H797-bA): -0.567
interaction score (4H855-bA): 1.12
interaction score (4H918-bA): 0.24
interaction score (4H953-bA): -0.885
interaction score (4H968-bA): -0.872
interaction score (P7A-bA): -1.17

B4: 4H56-bA (peptide)
chain: DEIAQLEQEIAELEQKNAELEWKNAQLKQ
interaction score (4H56-bA): -0.593
interaction score (4H730-bA): -1.15
interaction score (4H796-bA): -0.775
interaction score (4H932-bA): -0.898
interaction score (4H949-bA): -0.628
interaction score (P7SHb): 0.584

Results, then the binder that gave them:

interaction score (4H2692-bA): -0.461
interaction score (4H2717-bA): -0.0486
interaction score (4H2839-bA): -1.15
interaction score (4H2859-bH): -0.0963
interaction score (4H2915-bA): 0.654
interaction score (4H3057-bA): -0.734
interaction score (4H319-bA): -0.498
interaction score (4H319-bN): 0.192
interaction score (4H3277-bA): -0.458
interaction score (4H3298-bA): 1.59
interaction score (4H348-bA): -1.58
interaction score (4H40-bA): -0.113
interaction score (4H477-bA): -1.06
interaction score (4H492-bA): 2.26
interaction score (4H741-bA): -0.251
interaction score (O6-bP): 0.95
B1: 4H2692-bA (peptide)
chain: DKIAQLKQENAELEQEIAELEWENAQLKQ

interaction score (P7SHb): -0.618
interaction score (P8SHb): 1.18
interaction score (P9SHb): 0.021
B3: P7SHb (peptide)
chain: DEIRELEEKNEELKREIRELEEKNEYLKR

— publication PMC10397247
